Experimental data reported in US20140072563A1 (Regeneron, published 2014).

T1: ErbB3-mFc (human)
T1 construct: Dimeric soluble ErbB3; also called hErbB3.mFc
T1 chain: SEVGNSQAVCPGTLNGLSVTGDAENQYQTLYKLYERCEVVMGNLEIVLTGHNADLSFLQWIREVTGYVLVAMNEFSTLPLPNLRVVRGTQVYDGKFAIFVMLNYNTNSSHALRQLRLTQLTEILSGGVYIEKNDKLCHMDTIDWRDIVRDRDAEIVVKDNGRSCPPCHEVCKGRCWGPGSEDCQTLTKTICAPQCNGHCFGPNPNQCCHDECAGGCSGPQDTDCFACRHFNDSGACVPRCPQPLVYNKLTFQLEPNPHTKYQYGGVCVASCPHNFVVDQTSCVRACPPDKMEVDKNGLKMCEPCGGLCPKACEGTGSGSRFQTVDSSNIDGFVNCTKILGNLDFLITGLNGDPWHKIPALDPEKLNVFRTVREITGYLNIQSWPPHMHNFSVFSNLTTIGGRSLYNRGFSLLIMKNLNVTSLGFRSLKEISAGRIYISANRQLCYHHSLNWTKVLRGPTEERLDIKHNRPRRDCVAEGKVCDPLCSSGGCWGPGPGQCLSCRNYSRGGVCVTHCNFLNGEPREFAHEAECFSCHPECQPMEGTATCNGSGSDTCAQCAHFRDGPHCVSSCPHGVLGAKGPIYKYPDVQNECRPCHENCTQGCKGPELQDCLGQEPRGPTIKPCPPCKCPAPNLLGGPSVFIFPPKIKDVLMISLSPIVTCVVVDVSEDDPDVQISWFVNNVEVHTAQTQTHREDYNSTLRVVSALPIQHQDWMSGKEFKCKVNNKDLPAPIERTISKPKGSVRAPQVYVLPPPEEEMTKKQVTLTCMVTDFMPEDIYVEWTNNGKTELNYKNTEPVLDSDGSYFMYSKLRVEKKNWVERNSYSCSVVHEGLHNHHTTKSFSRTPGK


Biological target: T1, ErbB3-mFc
Assay: blocking ELISA: antibody (0-50 nM) + 50 pM ErbB3-mFc, binding to coated neuregulin1b
Excerpt: To further characterize anti-hErbB3 mAbs of the present invention, their ability to block ligand binding was examined via ELISA. […] Plates were washed and non-sequestered (plate bound) ErbB3 was detected with an anti-Fc poly conjugated with horseradish peroxidase (HRP). Plates were developed with TMB (3,3′,5,5′-tetramethylbenzidine) and neutralized with sulfuric acid before reading absorbance at 450 nm on a Victor X5 plate reader. Data analysis used a sigmoidal dose-response model within Prism™ software. […] Maximal blocking for each antibody was calculated by taking the difference in absorbance from zero to 50 nM antibody on the inhibition curve, divided by the difference in absorbance from 50 pM to zero ErbB3 on the dose curve.

| IC50 | Maximal Blocking (%) | Binder |
| --- | --- | --- |
| 135 pM | 95% | H4H2098P (antibody, human IgG4, V domains shown, Human IgG4 Fc (prefix H4H)) VH: QVQLVESGGGVVQPGRSLRLSCAASGFTFSSFGMHWVRQAPGKGLEWVAVIWYVEINKYHADSVKGRFTISRDDSKNTVYLQMNSLRAEDTAVYYCARDWNDGDYGMDVWGQGTTVTVSS VL: DIQLTQSPSFLSASVGDRVTITCWASQGISSFLAWYQQKAGKAPRLLIYAASTLQTGVPSRFSGSGSGTEFTLTISSLQPGDFATYHCQQLNSYPYTFGQGTKLEIKR |
| 59.4 pM | 100% | H4H2092P (antibody, human IgG4, V domains shown, Human IgG4 Fc (prefix H4H)) VH: EVQLVESGGGVVRPGGSLRLSCAASGFTFEDYGMNWVRQVPGKGLEWVSGTNWNGGITGYTGSVKGRFTISRDNAKNSLYLQMNSLRAEDTALYHCARDSGDQDAFDIWGQGTMVTVSS VL: DIQLTQSPSFLSASVGDRVTITCWASQDISSYLAWYQQKPGKAPKLLIYAASTFQSGVPSRFSGSGSGTEFTLTISNLQPEDFATYYCQQLDSYPLSFGGGTKVEIKR |
| 87.3 pM | 95% | H4H2084P (antibody, human IgG4, V domains shown, Human IgG4 Fc (prefix H4H)) VH: QVQLVESGGGVVQSGKSLRLSCVASGFTFSNYGMHWVRQTPGKGLEWVARIWFDGTNKYYTDSVKGRFTLSRDSSKNTLYLQMNSLRAEDTAVYFCAREESLELDHYVMDVWGQGTTVTVSS VL: AIQMTQSPSSLSASVGDRVTITCRASQDIRDDLGWFQQKPGKAPNLLIYAASSLQSGVPSRFSGSGSGTDFTLTISSLQPEDFATYYCLQDYNYPLTFGGGTKVEIKR |

The remaining lines, values behind:

| Binder | IC50 | Maximal Blocking (%) |
| --- | --- | --- |
| H4H1821N (antibody, human IgG4, V domains shown, Human IgG4 Fc (prefix H4H); In the H/D exchange experiment it was covalently attached to NHS agarose beads) VH: EVQLVESGGGLVQPGRSLRLSCAASGFTFDDYAMHWVRQAPGKGLEWVSSISWNSGSIGYADSVKGRFTISRDNAKNSLYLQMNSLKPEDTALYYCTKDTDYGDYLDAFDIWGQGTMVAVAS VL: not shown | 18 pM | 99% |
| H4H2111P (antibody, human IgG4, V domains shown, Human IgG4 Fc (prefix H4H)) VH: QVQLVESGGGVVQPGRSLRLSCAASGFTFNNYGMHWVRQAPGKGLAWVAVMWYSESHKYYADSVKGRFTISRDNSKNTLYLEMNSLRVEDTAIYYCARDLGDPDAFDIWGQGTMVTVSS VL: DIQLTQSPSFLSASVGDRVTITCWASQGISSYLAWYQQKPGKAPKLLIYGASTLQSGVPSRFSGSGSGTEFTLTISSLQPEDFATYYCQQLNSYPLTFGGGTKVEIKR | 49.7 pM | 92% |
| H4H2102P (antibody, human IgG4, V domains shown, Human IgG4 Fc (prefix H4H)) VH: EVQLVESGGGLVQPGGSLRLSCAASGFTFSNYDIHWVRQATGKGLEWVSAIGPAGDTYYSDSVKGRFTISREDAKNSLYLQMSSLRAGDTAVYYCASEGIAVRPDDYYGMDVWGQGTTVTVSA VL: DIQLTQSPSFLSASVGDRVTITCWASQDITSYLAWYQKKPGKAPKLLIYAASTLQSGVPSRFSGSGSGTEFTLTISSLQPEDFAAYYCQQLNSYPLTFGGGTKVDIKR | 186 pM | 90% |
| H4H2094P (antibody, human IgG4, V domains shown, Human IgG4 Fc (prefix H4H)) VH: EVQLVESGGGLVQPGGSLRLSCAASGFTFSSYDMHWVRQATGKGLEWVSAIGPAGDTYYPVSAMGRFTISRDDAKNSLYLQMNSLRAGDTAVYYCAREGVTIRPDDYFGLDVWGQGTTVTVSA VL: DIQLTQSPSFLSASVGDRVTITCWASQGISDYLAWYQKKPGKAPQLLIYAATTLQSGVPSRFSGSGSGTEFTLTISSLQPEDFATYYCQQLNTYPLTFGGGTKVEIKR | 90 pM | 92% |
| H4H2114P (antibody, human IgG4, V domains shown, Human IgG4 Fc (prefix H4H)) VH: QVQLVESGGGVVQPGRSLRLSCAASGFTFSSYGMHWVRQAPGKGLEWVAGMSYDGSSKYYEDSVKGRFTISRDNSKNTLNLQMNSLRVEDTAVYYCAKERDYVEYVDSYYGMDVWGQGTTVTVSA VL: AIQMTQSPSSLSASVGDRVTITCRASQGIRNDLGWYQQKPGKAPKVLIYAASSLQSGVPSRFSGSGSGTVFTLTISSLQPEDFATYYCLQDYNYPLTFGGGTKVEIKR | 163 pM | 91% |
